Experimental data as given in patent US20190330372A1 (Novartis, published 2019).
Where a chain is given by its changes, count along the chain named. Names may count otherwise. “And” between values parts separate entries of the source, which are not always exact repeats. Equal values may be shown once.

B1: AM1 (IgG) (antibody, V domains shown)
VH: QVQLLESGGGLVQPGGSLRLSCAASGFTFSTAAMSWVRQAPGKGLEWVSTIDSWGDDTDYADSVKGRFTISRDNSKNTLYLQMNSLRAEDTAVYYCARELSYLYSGYYFDYWGQGTLVTVSS
VL: DIVLTQPPSVSGAPGQRVTISCSGSSSNIGSNDVSWYQQLPGTAPKLLIYKNYNRPSGVPDRFSGSKSGTSASLAITGLQAEDEADYYCSAWDQRQFDVVFGGGTKLTVLG
B2: AM2 (IgG) (antibody, V domains shown)
VH: B1 VH with T50S, D52E, S53Y, W54Y, G55D, D56T, D59H
VL: B1 VL
B3: NOV1090 (IgG) (antibody, V domains shown)
VH: B1 VH with T50G, D52S, S53G, W54S, D56S, D57S, D59Y
VL: B1 VL
notes: Non-germlined version of NOV1401, human IgG1/lambda; also called parental NOV1090; parental IgG
B4: NOV1401 (IgG) (antibody, V domains shown)
VH: B1 VH with T50G, D52S, S53G, W54S, D56S, D57S, D59Y
VL: B1 VL with D1Q, I2S, V10A, A13T, T77S, A81S
notes: Germlined version of NOV1090, human IgG1/lambda with D265A and P329A in the Fc
B5: NOV1090 Fab (Fab, V domains shown)
VH: B1 VH with T50G, D52S, S53G, W54S, D56S, D57S, D59Y
VL: DIVLTQPPSVSGAPGQRVTISCSGSSSNIGSNDVSWYQQLPGTAPKLLIYKNYNRPSGVPDRFSGSKSGTSASLAITGLQAEDEADYYCSAWDQRQFDVVFGGGTKLTVL
notes: Purified HuCAL Fab, at least 90% monomer; It was detected with anti-Flag M2, so it carries a Flag tag; also called anti-FXI/FXIa Fab; parental NOV1090 Fab fragment
B6: AM1 Fab (Fab, V domains shown)
VH: B1 VH
VL: B5 VL
notes: Unpurified Fab in bacterial lysate (BEL extract), used in SET screening
B7: AM2 Fab (Fab, V domains shown)
VH: B1 VH with T50S, D52E, S53Y, W54Y, G55D, D56T, D59H
VL: B5 VL
notes: as for B6
B8: AM3 Fab (Fab, V domains shown)
VH: B1 VH with D52E, S53Y, W54S, G55S, D56Q, D57E, D59Y
VL: B5 VL
notes: as for B6
B9: NOV1401 Fab (Fab, V domains shown)
VH: B1 VH with T50G, D52S, S53G, W54S, D56S, D57S, D59Y
VL: B5 VL with D1Q, I2S, V10A, A13T, T77S, A81S
notes: Fab of NOV1401, the germlined version of NOV1090 with identical CDRs

Key:
rabbit FXI = rabbit FXI (rabbit); test: direct ELISA, panel 'Rabbit FXI': antigen coated on the plate, IgG titrated, AP-anti-human F(ab)2 and AttoPhos fluorescence (RFU); half-maximal binding concentration of the fit, headed 'IC50' in the drawn table; unit taken from the axis 'Conc. [nM]'
Experimental: (§1) For direct coating ELISAs, antigens were immobilized on 384-well Maxisorp™ microtiter plates over night at 4° C. using the concentrations as shown in Table 5. After blocking with 5% skim milk powder in PBS (80 μl/well), 20 μl/well of Fab-containing E. coli lysates or purified antibodies at various concentrations (typically 12 points of a 1:3 titration starting at 200 nM IgG or Fab, respectively) were added to plates and incubated for 1 h at room temperature. […] Fluorescence emission at 535 nm was recorded with excitation at 430 nm. Multiple wash steps with PBS+0.05% Tween20 were performed in between individual assay steps.

human plasma-derived FXI = target: T1, human plasma-derived FXI (human, UniProt P03951 19-625); test: direct ELISA, panel 'Human plasma FXI': antigen coated on the plate, IgG titrated, AP-anti-human F(ab)2 and AttoPhos fluorescence (RFU); half-maximal binding concentration of the fit, headed 'IC50' in the drawn table; unit taken from the axis 'Conc. [nM]'
T1 construct: This is the zymogen, which has two chains; also called human FXI; Factor XI
T1 sequence (P03951 19-625 C226S limits assumed): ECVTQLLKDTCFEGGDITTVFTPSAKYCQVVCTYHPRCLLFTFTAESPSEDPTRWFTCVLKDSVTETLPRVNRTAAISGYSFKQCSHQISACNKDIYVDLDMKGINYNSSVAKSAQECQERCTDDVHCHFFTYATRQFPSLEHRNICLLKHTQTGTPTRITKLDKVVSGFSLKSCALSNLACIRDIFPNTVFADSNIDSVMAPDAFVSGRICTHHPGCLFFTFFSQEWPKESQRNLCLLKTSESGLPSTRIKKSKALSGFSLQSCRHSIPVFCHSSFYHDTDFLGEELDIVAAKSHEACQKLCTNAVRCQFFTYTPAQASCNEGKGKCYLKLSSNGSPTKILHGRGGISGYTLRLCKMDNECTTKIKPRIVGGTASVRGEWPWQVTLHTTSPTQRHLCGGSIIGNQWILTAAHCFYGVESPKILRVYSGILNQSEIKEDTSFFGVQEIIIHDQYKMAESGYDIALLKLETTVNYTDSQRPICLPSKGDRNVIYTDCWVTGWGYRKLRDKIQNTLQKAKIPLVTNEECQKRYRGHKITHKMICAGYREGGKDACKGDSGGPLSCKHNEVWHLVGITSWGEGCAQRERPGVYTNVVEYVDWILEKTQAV
Experimental: as §1

[1] = target: T2, human plasma derived FXIa (human, UniProt P03951 19-625); test: direct ELISA, panel 'Human plasma FXIa': antigen coated on the plate, IgG titrated, AP-anti-human F(ab)2 and AttoPhos fluorescence (RFU); half-maximal binding concentration of the fit, headed 'IC50' in the drawn table; unit taken from the axis 'Conc. [nM]'
T2 construct: The light chain is the catalytic domain, 388-625; also called hFXIa; human FXIa
T2 sequence (P03951 19-625 C226S limits assumed): as above
Experimental: as §1

human pre-kallikrein = human pre-kallikrein (human, UniProt P03952 20-638); test: direct ELISA, panel 'Human Pre-kallikrein': antigen coated on the plate, IgG titrated, fluorescence (RFU)
Sequence of human pre-kallikrein (P03952 20-638 limits assumed): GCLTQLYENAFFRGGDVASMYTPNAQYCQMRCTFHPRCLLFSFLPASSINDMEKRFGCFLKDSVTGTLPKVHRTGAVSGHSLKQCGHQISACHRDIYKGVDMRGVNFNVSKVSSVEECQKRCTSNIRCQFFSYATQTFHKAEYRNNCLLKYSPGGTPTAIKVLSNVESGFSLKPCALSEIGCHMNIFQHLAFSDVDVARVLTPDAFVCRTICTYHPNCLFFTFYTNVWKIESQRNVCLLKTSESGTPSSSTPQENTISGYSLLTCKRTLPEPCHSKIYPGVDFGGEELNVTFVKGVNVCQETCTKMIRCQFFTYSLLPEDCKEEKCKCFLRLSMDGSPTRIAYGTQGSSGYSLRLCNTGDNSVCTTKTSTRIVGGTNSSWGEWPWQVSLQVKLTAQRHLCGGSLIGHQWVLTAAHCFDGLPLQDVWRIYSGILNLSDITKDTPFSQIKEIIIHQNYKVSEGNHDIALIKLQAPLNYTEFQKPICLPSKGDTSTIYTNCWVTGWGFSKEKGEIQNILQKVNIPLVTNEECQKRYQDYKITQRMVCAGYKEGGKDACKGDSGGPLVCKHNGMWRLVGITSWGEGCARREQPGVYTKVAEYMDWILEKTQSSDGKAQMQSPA
Experimental: as §1

cynomolgus monkey FXI = cynomolgus monkey FXI (cynomolgus monkey); test: direct ELISA, panel 'Cynomolgus monkey FXI': antigen coated on the plate, IgG titrated, AP-anti-human F(ab)2 and AttoPhos fluorescence (RFU); half-maximal binding concentration of the fit, headed 'IC50' in the drawn table; unit taken from the axis 'Conc. [nM]'
Sequence of cynomolgus monkey FXI (cynomolgus monkey) (P03951 other isoform, or with tags, fused parts or gaps): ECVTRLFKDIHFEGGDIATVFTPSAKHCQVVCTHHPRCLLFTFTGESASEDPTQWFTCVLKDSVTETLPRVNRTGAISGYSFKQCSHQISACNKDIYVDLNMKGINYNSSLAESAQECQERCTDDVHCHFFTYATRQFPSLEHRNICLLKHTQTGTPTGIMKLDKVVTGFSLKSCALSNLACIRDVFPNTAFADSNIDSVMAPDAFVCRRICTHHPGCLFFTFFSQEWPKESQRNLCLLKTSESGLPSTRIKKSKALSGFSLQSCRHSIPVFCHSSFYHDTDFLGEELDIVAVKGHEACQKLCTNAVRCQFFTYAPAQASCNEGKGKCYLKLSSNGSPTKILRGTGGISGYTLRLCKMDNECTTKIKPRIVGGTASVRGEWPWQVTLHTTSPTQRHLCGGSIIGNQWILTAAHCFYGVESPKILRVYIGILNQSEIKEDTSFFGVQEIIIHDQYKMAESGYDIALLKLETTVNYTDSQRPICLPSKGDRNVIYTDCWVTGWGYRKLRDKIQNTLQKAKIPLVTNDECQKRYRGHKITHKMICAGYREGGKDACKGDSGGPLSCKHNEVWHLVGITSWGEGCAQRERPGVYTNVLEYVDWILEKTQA
Experimental: as §1

human kallikrein = human kallikrein (human, UniProt P03952 20-638); test: direct ELISA, panel 'Human Kallikrein': antigen coated on the plate, IgG titrated, fluorescence (RFU)
Sequence of human kallikrein (P03952 20-638 limits assumed): as the sequence (P03952 20-638 limits assumed) above
Experimental: as §1

[2] = target: T2, human plasma derived FXIa; test: cell-based or functional assay
[3] = target: T2, human plasma derived FXIa; test: cell-based or functional assay; remark: listed apart in the source
[4] = target: T2, human plasma derived FXIa; test: direct ELISA, panel 'Human plasma FXIa': antigen coated on the plate, IgG titrated, AP-anti-human F(ab)2 and AttoPhos fluorescence (RFU); the printed IC50 cell of this row is under recheck
Experimental: as §1

[5] = target: T2, human plasma derived FXIa; test: solution equilibrium titration (SET), IgG at 20 pM, 1:1 binding model
Experimental: (§2) Experiments were carried out in polypropylene microtiter plates and with PBS (GIBCO 14190, pH 7.0-7.2) containing 0.5% BSA and 0.02% Tween20 as assay buffer. Serial dilutions of unlabeled FXIa antigen were prepared, starting with a concentration at least 10 times higher than the expected KD. Wells without antigen were used to determine Bₘₐₓ values; wells containing only assay buffer were used to determine background. After addition of an appropriate amount of binder (antibody concentration similar to or below the expected KD, 60 μL final volume), the mixture was incubated over night at RT.
(§3) MSD plates were coated with 1 μg/mL human plasma derived FXIa (30 μL per well). After washing the plate with PBS containing 0.05% Tween 20, the equilibrated samples were transferred to the plates and incubated for 20 min. Following incubation, 30 μL per well of the MSD-Sulfo-tag labeled detection antibody (anti-Flag M2 (Sigma) 1:2,000) was added to the washed MSD plate and incubated for 30 min at RT on an Eppendorf shaker (700 rpm).
The SET method described in Example 2 was used to determine the KD for AM4 (IgG), and compared to NOV1401, the germlined version of its parental antibody NOV1090.

[6] = target: T2, human plasma derived FXIa; test: solution equilibrium titration (SET), ECL read-out, purified Fab at 500 pM with titrated hFXIa; ± is the 95% confidence interval of the fit
Experimental: as §2, §3
After washing the MSD plate and adding 30 μL/well MSD Read Buffer T with surfactant, electrochemiluminescence signals were detected using a Sector Imager 6000 (Meso Scale Discovery, Gaithersburg, Md., USA).

[7] = target: T2, human plasma derived FXIa; test: SET KD estimates of Fabs compared with SET KD of NOV1090 Fab
[8] = target: T2, human plasma derived FXIa; test: SET screening, KD estimate from 5 data points, unpurified Fab in bacterial lysate; ± is the 95% confidence interval of the fit
Text: To estimate Fab KDs, bacterial lysates were screened by SET. The SET screening method (see, e.g., Della Ducata et al (2015) J Biomol Screen; 20(10):1256-67) was generally performed as described above for the SET determination method. For ranking of the matured binders by SET based on the principles described by Haenel and coworkers (Haenel et al (2005) Anal Biochem; 339(1):182-4), a constant amount of diluted BEL extract (bacterial lysate) was equilibrated over night with different concentrations of antigen.
The mixture was then transferred to MSD plates, which were previously coated with antigen (1 μg/mL human plasma FXIa), and after incubation and washing, a suitable MSD-Sulfo-tag labeled detection antibody was added (anti-Flag M2, Sigma).

[9] = target: T2, human plasma derived FXIa; test: SET screening compared with SET KD of NOV1090 Fab
[10] = target: T2, human plasma derived FXIa; test: method not stated in the sentence (compared with the SET KD of NOV1090 Fab); NOV1401 Fab, cited for comparison with the SET KD of NOV1090 Fab

Binder | IC50 (rabbit FXI) | IC50 (human plasma-derived FXI) | binding result (human pre-kallikrein) | IC50 (cynomolgus monkey FXI) | binding result (human kallikrein) | TGA IC50 [2] | TGA Residual Thrombin [nM] (%) [2] | fold increase in affinity over NOV1090 Fab [7] | Kd [8] | fold lower KD than NOV1090 Fab [9] | also measured
B1 | 463 pM | 215 pM | no binding (tested: about 200 nM) | 448 pM | no binding (tested: about 200 nM) | 6000 pM | 180 nM and 37.5% | – | – | – | IC50 [1]: 274 pM; TGA IC50, fold lower compared to NOV1401 [3]: ~4 fold
B2 | 432 pM | 331 pM | no binding (tested: about 200 nM) | 399 pM | no binding (tested: about 200 nM) | 7000 pM | 186 nM and 36.6% | – | – | – | IC50 [1]: 466 pM
B3 | 504 pM | 392 pM | no binding (tested: about 200 nM) | 580 pM | no binding (tested: about 200 nM) | – | – | – | – | – | EC50 (read off the curve) [4]: ~600 pM
B4 | – | – | – | – | – | 24000 pM | 159 nM and 34.4% | – | – | – | Kd [5]: 3.12 pM
B5 | – | – | – | – | – | – | – | – | – | – | Kd [6]: 210 pM
B6 | – | – | – | – | – | – | – | ~10 fold | 32 pM | ~7 fold | –
B7 | – | – | – | – | – | – | – | ~10 fold | 27 pM | ~7 fold | –
B8 | – | – | – | – | – | – | – | ~10 fold | 29 pM | ~7 fold | –
B9 | – | – | – | – | – | – | – | – | – | – | Kd [10]: 305 pM
